Laboratory results reported in PMC1839166, “Type III Effector Activation via Nucleotide Binding, Phosphorylation, and Host Target Interaction” (PLoS Pathogens, 2007).

Columns and labels:
[1] = biological target: T1, avirulence protein B (AvrB), wild type (Pseudomonas syringae pv. glycinea), P13835; assay: ITC; VP-ITC microcalorimeter; RIN4_(142–176) peptide (50 to 450 μM) titrated in 6-μl injections into 5 to 25 μM wild-type or variant AvrB, stirring at 255 rpm; wild-type AvrB 6 μM with full-length RIN4 120 μM; nonbinding confirmed at as much as 25 μM and 450 μM; conditions: remark: other sources report otherwise
T1 sequence (P13835 whole entry): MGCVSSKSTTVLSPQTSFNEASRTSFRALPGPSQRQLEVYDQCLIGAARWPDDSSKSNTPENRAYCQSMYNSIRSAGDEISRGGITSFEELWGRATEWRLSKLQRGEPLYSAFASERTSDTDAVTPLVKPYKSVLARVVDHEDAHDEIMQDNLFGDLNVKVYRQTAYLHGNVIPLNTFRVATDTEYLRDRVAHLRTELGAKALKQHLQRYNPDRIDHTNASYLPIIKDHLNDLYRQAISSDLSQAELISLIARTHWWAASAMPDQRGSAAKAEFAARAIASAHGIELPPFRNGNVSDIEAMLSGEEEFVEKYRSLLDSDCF

[2] = biological target: T1, avirulence protein B (AvrB), wild type …; assay: as above; conditions: remark: other sources report otherwise; remark: listed apart in the source

B1: full-length RIN4, Q8GYN5 1-211 (natural protein)
chain: MARSNVPKFGNWEAEENVPYTAYFDKARKTRAPGSKIMNPNDPEYNSDSQSQAPPHPPSSRTKPEQVDTVRRSREHMRSREESELKQFGDAGGSSNEAANKRQGRASQNNSYDNKSPLHKNSYDGTGKSRPKPTNLRADESPEKVTVVPKFGDWDENNPSSADGYTHIFNKVREERSSGANVSGSSRTPTHQSSRNPNNTSSCCCFGFGGK
With B1 the Kd [1] was 4000 nM and the Kd [2] was 1000 nM.
